Experiment: soluble on expression in E. coli; label from the status in PepcDB or PDB records

Row | Sequence | soluble on expression in E. coli
1 | TELKPLLIELGTEELPVNALPNLSRAFFEGVLAGLERRGIVVDHGEAKSLSTPRRLAVLLTAVAVEQPKQYRELFGPYLNTAFDTEGKPTKALEGFAAKCGVNWRTLERIRDTKGERFVHRVVVPGERTDALLPGILTEAIAGMPIPKPMRWGAHEYLFARPVHWLVMLFGQDVVEAEIMGVKAGRISRGHRFLYDKPVSLSGPQNYIDVLQAAYVLVDPAARRARIVAEIEAVARQVGGVARITEDNVAQVVNLVEWPSAVLCSFERVFLEVPQEALIQTMEVNQKFFPVLDSLGKLTEKFIGIANIESNDVAEVAKGYERVIRPRFSDAKFFFNEDLKQGLKAMGERLRTVTYHAKLGTLADKVARVLVLAEAIAPQIGVDPLLARRVALLSKNDLQSRMVNEFPELQGVAGHHYALISGELPEVAMAIEDAYRPRFSGDEIARSPLGKVLGLAERLDTLACGFAVGMKPTGNKDPFGLRRNALGLARTIIESRFDLDLKVLLDQASDWVAFATTIEQERHAQESVKQSKKEAAVKHSVPQVSDEKSARIEELYDFIVERLRGYYADKGIPTTHFNAVAELKPVS | not soluble
2 | MGSDKIHHHHHHMKITFGQQTTKVKQLADKISFDISMGVYKSGDSLPSINQLSQAYEVSRDTVFKAFLDLKERGIIDSTPGKGYYVVGRLKNVLLLLDEYSPFKYALYNSFVKRLSIRYKVDLLFHQYNERLFNTIIRESLGRYNKYIVMNFDNEKLSPNLYKINPSKLLLLDFGKFEKEGFSYVCQDFDQGFYNALFQLADRLRKYQKLVFVLVDDSMHPRSSRDFFERFCADQHLGCEVVSDIEGLQVRRGEVYIAIRQIDVVSIIKKSRVEGLQCGVDFGLIGYNDTPAYEVIDQGITALSVDWEKMGDKAAEFVLQGKTIQDYLPTEVRLRASL | not soluble
3 | MAHHHHHHMHPFYTIRYPPSKGSNESQPILVTDTAIEPLFFCIVYSIEFQCPVQTTESRTANSRSSSFPFGGRASGSGGKREANELHVCPVENTSKLLGNVTYVSCLDHNPTLLASLQTAVDAARAIPIPEDEQKVPLQLCVRLLHKQTRWLWEESRPLVEWTFKIVKTRGLSYAAVPEASSGASARNTNVEFVHASGPAQIREVLQFILKHSYEAIDLNTFSDFKSGELVFEVFVDQAR | soluble
4 | MDSFWFVQQWPPAVCSFQKSGSCPGSGLRTFTIHGLWPQQSGTSLTNCPGSPFDITKISHLQSQLNTLWPSVLRANNQQFWSHEWTKHGTCSESTFNQAAYFKLAVDMRNNYDIIGALRPHAAGPNGRTKSRQAIKGFLKAKFGKFPGLRCRTDPQTKVSYLVEVVACFAQDGSTLIDCTRDTCGANFIF | soluble
5 | MGSSHHHHHHSSGLVPRGSHGLVPRGSHMKKLKLHGFNNLTKSLSFCIYDICYAKTAEERDGYIAYIDELYNANRLTEILSETCSIIGANILNIARQDYEPQGASVTILVSEEPVDPKLIDKTEHPGPLPETVVAHLDKSHICVHTYPESHPEGGLCTFRADIEVSTCGVISPLKALNYLIHQLESDIVTIDYRVRGFTRDINGMKHFIDHEINSIQNFMSDDMKALYDMVDVNVYQENIFHTKMLLKEFDLKHYMFHTKPEDLTDSERQEITAALWKEMREIYYGRNMPAV | soluble
6 | MTKPLDGINVLDFTHVQAGPACTQMMGFLGANVIKIERRGSGDMTRGWLQDKPNVDSLYFTMFNCNKRSIELDMKTPEGKELLEQMIKKADVMVENFGPGALDRMGFTWEYIQELNPRVILASVKGYAEGHANEHLKVYENVAQCSGGAAATTGFWDGPPTVSGAALGDSNSGMHLMIGILAALEIRHKTGRGQKVAVAMQDAVLNLVRIKLRDQQRLERTGILAEYPQAQPNFAFDRDGNPLSFDNITSVPRGGNAGGGGQPGWMLKCKGWETDADSYVYFTIAANMWPQICDMIDKPEWKDDPAYNTFEGRVDKLMDIFSFIETKFADKDKFEVTEWAAQYGIPCGPVMSMKELAHDPSLQKVGTVVEVVDEIRGNHLTVGAPFKFSGFQPEITRAPLLGEHTDEVLKELGLDDAKIKELHAKQVV | soluble
7 | MAKKTSSKGKLPPGPRPLPLLGNLLQMDRRGLLKSFLRFREKYGDVFTVHLGPRPVVMLCGVEAIREALVDKAEAFSGRGKIAMVDPFFRGYGVIFANGNRWKVLRRFSVTTMRDFGMGKRSVEERIQEEAQCLIEELRKSKGALMDPTFLFQSITANIICSIVFGKRFHYQDQEFLKMLNLFYQTFSLISSVFGQLFELFSGFLKHFPGAHRQVYKNLQEINAYIGHSVEKHRETLDPSAPRDLIDTYLLHMEKEKSNAHSEFSHQNLNLNTLSLFFAGTETTSTTLRYGFLLMLKYPHVAERVYREIEQVIGPHRPPELHDRAKMPYTEAVIYEIQRFSDLLPMGVPHIVTQHTSFRGYIIPKDTEVFLILSTALHDPHYFEKPDAFNPDHFLDANGALKKTEAFIPFSLGKRICLGEGIARAELFLFFTTILQNFSMASPVAPEDIDLTPQECGVGKIPPTYQIRFLPRHHHH | soluble
8 | MSLKKYLGIIVDAVSRRQFKGEITVENGKILRVEEKEHDHERYILPGLVDAHVHIESSMTVPSVFARMAVAKGTVAVVSDPHEIANVMGEEGIDFMLGDSKRSPLKVFFGVPSCVPATPFESAGSVLDAEAVDRLLAREDLYYLSEMMNFPGVVLGFPDVMAKLESAKKCGKVIDGHAPGLRGADLETYIGVGISTDHESFTYEEAVEKIKLGMKILIREGSSARNFETLYSLIDEYPEAVMLCTDDSHPDTLIYEGHIDKLIRRGQEKGLDIFNLIRAAVINPVEHYGLNVGLLREGDPADFITVDDLKSFNVLSTFIDGECVYENGEGHHHHHH | soluble
9 | KAQKLNEQHQLILSKLLREEDNKYCADCEAKGPRWASWNIGVFICIRCAGIHRNLGVHISRVKSVNLDQWTAEQIQCMQDMGNTKARLLYEANLPENFRRPQTDQAVEFFIRDKYEKKKYYDKNAIAI | soluble
10 | MSWEGFKKAINRAGHSVIIKNVDKTIDKEYDMEERRYKVLQRAGEALQKEAKGFLDSLRAVTASQTTIAEVISNLYDDSKYVAGGGYNVGNYYLQCVQDFDSETVKQLDGPLRETVLDPITKFSTYFKEIEEAIKKRDHKKQDFDAAKAKVRRLVDKPAKDASKLPRAEKELSLAKDIFENLNNQLKTELPQLVSLRVPYFDPSFEALIKIQLRFCTDGYTRLAQIQQYLDQQSRDDYANGLLDTKIEELLGQMTSLDICALGIK | not soluble
11 | MAHHHHHHMGDAENNENDKKCLWVPDEEVTNCYSCNAFFNVRVRKHHCRACGNVFCSNCSDNKIKISEYSYAEKVRVCDRCFMERSSPQTLLLQEDLGARKQINQDLKKALSEKMAIVERFKTFLLEFDSEILNNSDHADGSNDVMSLLKRGEKGLKDLNDKIRNYDSIIENQKKELEHLKREKEQKTELNKILHLRNHEIQQKNMNIKNLVKEKNELTLVKEESEGIIHSYKKQVEKLIIRCNQLELEKKRKNYTDQSSNYSFTNSSSQSYMMNSYRLPQNEMSVSYTVAQGPSDDPEEENCCNYCQRRVCSIM | not soluble
12 | METFQKIKELVVVPERQSVILSVKQDLVNPLQDIAQQMAQYVTREYPLTLIDGVKLTPALEEQAFATYQTVQNLLTLKASVEDIAEALDVLEGGLTMQKVSNAEARAKAYITALNGISLWALLQAVKNLVRGEAKGMSTTFVPSCADLAQYCRDLENRLSGTAEKVFIAVENSRNLALGGKRISFMRIGKPCEELHGNLSSKAA | not soluble
13 | MLFLDKNLELNDTELDIYNYIVANLEKVVYMRIRDLATEAHVSTTTILRFCRKFGCNGFSEFRVKLQLYLEEQKLAQIDMADETTYIDFLKRTAQPEFKAQIQNAVEILRDRELVLFAGVGSSGVIAEYGAIYFSSLFTLALHIEDPLNHPFYHLSSKLSDKICMIAISVEGENEDIIRYIHQLKAQNCKVISITNSAKSTIARLSDANIAYYINKEMYQEANITSQLPALYTIENIAREIRTQIDKEKM | not soluble
14 | MRGRAVSRNAIIGIVHRNAKLAAIGFGRAKSSPASEGSSTYTPEEIKLVADCLKAKRNYVQIAQRLALKSGRIISRFGVKSLIRRTPELNEIGFRGKKGRPSDKKKAAPGQLPGRLFIAATADIDRDPSAFDYLTRPAVRALASQPHFAAMRFVDCLPARCRAPLSYDLEERPGPDMLCCGHLAMPSRSYCAYHEIRLTARKAEFIAEAALEHHHHHH | not soluble
15 | MAHHHHHHMRRIQLAFLTKLWQRRNCGSFNERALVQRTCEHIYCSSSAREQLRQLIHESSVENALRHLGEFSNDVSVLKGSAWLGQLSKAPDVVGRIAVILPQFEKWYVARKAPEKVTMHEPWDWYPKARFMRRRFVFHYGPTNSGKTHAALETLVKAKSGVYCAPLKALAAQVWKRIDASVPCDLLIGDERRFGGGAEHVSCTVEMTPIDYQIDVGVIDEVQMIADRDRGWAWTRALLGLPAREIHLCGEERAIPLIRKVLYKTHELQRLEVVPHKRLVPLEVSPSLDGDLRRIENGDTLVCFSRRAIFDMKKKLENISGMAPHCIYGSMPFSVREAQADAFNNGTRDVIEGKSGKKHVLISTDAIAYGLNMSIERIIFTSMRKFDGKQMVTLPQATILQVAGRAGRFGVLRSHKFGRCTTLDSNDFAVLCEAVNSRLPSLQKAGLLPTAEVLELYIRLREAEEGGRVTENNLASFYQRMREFSECCQASDLFFPCDLSRSLLQVAKELEAVTDLSLSDRILFCYVPLNDRGKETYDLLRAFGHDHAAGRHVVLRIDEEFERLVKQCDLVCSGDTRRAHQVLTRMEHLYRVAEMYCWLAWRFGKTFVHLETATALKERAALKMEEILQHL | not soluble
16 | MSLQDESPLLIITDSALVRDALVTHISETRRLLIADSHDVGMELALSFRPALILLDASSTDGEALALLRAFRSEPHLDDTFILVLSDEAAVLERLEASRAGADDFLRLPVDQAELTARVAVALRQARLSRRLRAYTRRIEEEMRLVADLQMRLLPAYTPYLASLRIDSFYQPSTEASGDYFDHFLLPGEDRLRVVIADASGHGARSAVLMTMVRTLFHASHAANTPLTDMLLEINTNLLDVVGNEPDFVTLFAADLDLRGNTLRYVNAGHCPALLRHPDGTTMRLSGTTPRLGFFGVRETERLVPFTPGTRLLLYTDGFHDCATASGRRLGIDRFLSLAEATMRRGGDVLSSLREDISTTFGEPPTWPDDVTALYIERKEEGHHHHHH | soluble
17 | MNTDAIESMVRDVLSRMNSLQGEAPAAAPAAGGASRSARVSDYPLANKHPEWVKTATNKTLDDFTLENVLSNKVTAQDMRITPETLRLQASIAKDAGRDRLAMNFERAAELTAVPDDRILEIYNALRPYRSTKEELLAIADDLESRYQAKICAAFVREAATLYVERKKLKGDD | soluble
18 | GMDISLLKQVVQSTNKIALSTAVNNEADVKIVNFVWYEAQPDTLYFSSVKTSPALKVYDQNPDIAFITIPNDGTAGNPYLRAQHVKLQRSTKTMTDLLPQYLETVPNYQQVWDAIGSTLVVFELKLTDLFVDAGVGGEKQTLTFN | soluble
19 | MAGQVVVNDHLADKAGLQVPVEAEIRLKGEDIPFVSRGGLKLARALEEFGIDVADMTAIDVGASTGGFTDCLLQRGARKVYAVDVGYGQLAWKLRQDSRVVNLEKTNIRYLEPGALPETPGLAVIDASFISLDKVLPSTLRLIGEEGVIVALIKPQFEVGRGEVGKGGVVRDEEKHRRVIADVVALAEGLGLMVLGVTESPILGPKGNREFLIHLKKAVGETPPHNR | not soluble
20 | MGSDKIHHHHHHMARGYIAKKLLVEGKDDLRVIPELIEKNGIVWGNNKKEAIVTIEDYGGYTNINSDLVSTELQASGLTHLGLMVDADDKPQTRWQSIREACLDSILDIPEEIPTTGLIHTTNTGIKFGVWIMPDNLMQGMLETFLAYMIPDESEPLWMYAQEVVAEAKIKGASFIDARIDKAKIHTWLAWQEEPGR | not soluble

— the DeepSol protein solubility set
